According to PMC6638966, “The demethylase NMAD-1 regulates DNA replication and repair in the Caenorhabditis elegans germline” (PLoS Genetics, 2019):

Target: T1, GST-tagged TOP-2 (C. elegans, UniProt Q23670 1-1520)
T1 construct: TOP-2, topoisomerase II of C. elegans; also called topoisomerase II; source: E. coli BL21, purified (glutathione sepharose 4B)
Assay: pull-down; 3 μg GST-tagged protein on glutathione sepharose 4B beads with 1 μg HIS-tagged NMAD-1 in TAP wash buffer (50 mM Tris-HCl pH 8.0, 100 mM KCl), 1 h at 4 °C; blot probed with HIS antibody
Details: both partners purified

T1 sequence (Q23670 whole entry): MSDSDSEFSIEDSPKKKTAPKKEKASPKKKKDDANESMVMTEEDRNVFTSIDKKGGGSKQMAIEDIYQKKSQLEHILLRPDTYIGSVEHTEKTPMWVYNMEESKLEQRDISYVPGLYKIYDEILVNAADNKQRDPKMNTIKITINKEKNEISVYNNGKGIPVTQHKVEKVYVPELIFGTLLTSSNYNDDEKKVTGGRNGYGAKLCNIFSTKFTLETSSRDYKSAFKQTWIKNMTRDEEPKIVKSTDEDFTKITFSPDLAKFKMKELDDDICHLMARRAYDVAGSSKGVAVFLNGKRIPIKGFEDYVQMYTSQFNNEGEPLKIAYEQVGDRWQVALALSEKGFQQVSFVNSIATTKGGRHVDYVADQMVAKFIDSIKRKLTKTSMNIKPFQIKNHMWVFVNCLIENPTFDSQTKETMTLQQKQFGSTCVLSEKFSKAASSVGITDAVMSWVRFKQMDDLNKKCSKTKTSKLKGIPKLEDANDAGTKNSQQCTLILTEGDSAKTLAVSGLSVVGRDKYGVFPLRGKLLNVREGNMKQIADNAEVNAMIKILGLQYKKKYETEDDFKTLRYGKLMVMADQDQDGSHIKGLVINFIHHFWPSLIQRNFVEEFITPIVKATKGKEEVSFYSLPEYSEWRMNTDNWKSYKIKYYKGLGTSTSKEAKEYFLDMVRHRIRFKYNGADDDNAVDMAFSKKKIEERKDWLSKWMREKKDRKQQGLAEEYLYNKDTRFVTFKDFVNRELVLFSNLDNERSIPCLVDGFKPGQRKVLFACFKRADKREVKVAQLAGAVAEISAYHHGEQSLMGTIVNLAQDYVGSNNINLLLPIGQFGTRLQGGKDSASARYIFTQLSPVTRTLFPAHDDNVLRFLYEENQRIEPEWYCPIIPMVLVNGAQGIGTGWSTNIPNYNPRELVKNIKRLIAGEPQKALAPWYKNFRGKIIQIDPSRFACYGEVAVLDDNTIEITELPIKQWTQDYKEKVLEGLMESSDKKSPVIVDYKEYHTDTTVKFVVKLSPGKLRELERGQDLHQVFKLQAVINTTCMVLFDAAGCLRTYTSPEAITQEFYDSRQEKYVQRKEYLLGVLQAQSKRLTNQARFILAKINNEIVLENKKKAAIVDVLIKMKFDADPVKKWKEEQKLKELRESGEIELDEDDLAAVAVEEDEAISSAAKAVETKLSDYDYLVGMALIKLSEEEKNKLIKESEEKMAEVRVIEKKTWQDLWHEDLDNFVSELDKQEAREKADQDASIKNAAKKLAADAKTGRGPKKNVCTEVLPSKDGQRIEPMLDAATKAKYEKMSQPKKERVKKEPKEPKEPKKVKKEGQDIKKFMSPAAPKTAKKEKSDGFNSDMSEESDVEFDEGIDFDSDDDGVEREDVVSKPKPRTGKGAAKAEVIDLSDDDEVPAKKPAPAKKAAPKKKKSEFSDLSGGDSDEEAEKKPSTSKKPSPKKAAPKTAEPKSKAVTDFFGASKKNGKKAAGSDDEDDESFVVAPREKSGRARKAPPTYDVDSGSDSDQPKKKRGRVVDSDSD

binding result: binds
B1: recombinant His-tagged NMAD-1 (enzyme, C. elegans, UniProt Q8MNT9 1-291, looked up)
chain: MGSAEQACGCKGARFCALCETTERVKKLRVVEDKHVNYKVFIYDHIRQIAIPTTNLNSQSSLEDIIDESTSCQSVSTDGSIEIDGLTLIHNFLSESEESKILNMIDTVEWAQSQSGRRKQDYGPKVNFKHKKVKTDTFVGMPEYADMLLNKMSEYDVKKLGNYQPFEMCNLEYEEVKKSAIEMHQDDMWIWGNRLISINLINGSVMTLSNDNKSFLCYVHMPHRSLLCMADECRYDWKHGVLAHHIRGRRIALTMREAAKDFAEGGELYEKYGAELIRLGNIRVPLSKTSV
notes: NMAD-1 (F09F7.7) of C. elegans; also called HIS:NMAD-1; source: E. coli BL21, purified (Ni-NTA)
